Data: US20260272979A1 (CHINEO MEDICAL TECHNOLOGY, published 2026)
Positions count from the first letter of the chain named.

T1: PD-L2 fuse-expressed with an Fc derived from human IgG1 (human, UniProt Q9BQ51 20-219, limits assumed)
T1 construct: Bought reagent; also called hPD-L2-Fc; not shown: Fc of human IgG1
T1 sequence (looked up): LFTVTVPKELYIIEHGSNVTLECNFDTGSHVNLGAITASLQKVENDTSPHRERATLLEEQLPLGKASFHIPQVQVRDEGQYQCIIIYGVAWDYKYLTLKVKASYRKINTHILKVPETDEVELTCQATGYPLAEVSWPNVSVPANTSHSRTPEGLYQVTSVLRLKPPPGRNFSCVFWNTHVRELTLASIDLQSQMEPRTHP

B1: PD-1 variant PD1_56#-16 on cells (receptor)
chain: PGWFLDSPDRPWNPPTFSPALLVVTEGDNATFTCSFSNTSESFVLNWYRMSPSNQTDKLAAFPEDFFTVSQDCRFRVTQLPNGRDFHMSVVRARRNDSGTYLCGAISLSTPVWIKESLRAELRVTERRAEVPTAHPSPSPRPAGQFQTLVVGVVGGLLGSLVLLVWVLAVIRSKRSRLLHSDYMNMTPRRPGPTRKHYQPYAPPRDFAAYRS
notes: On 293T cells and human T cells, from pLV2-PD1-CD28; signal peptide 1-20 left out; also called Mut5
B2: PD-1 variant PD1_56#-108 on cells (receptor)
chain: B1 chain with F66R, F67I, T68N, V69R
notes: On 293T cells and human T cells, from pLV2-PD1-CD28; signal peptide 1-20 left out; also called Mut6
B3: Seq No. 2-RFc (PD-1 variant PD1_56# fused to rabbit IgG Fc) (Fc fusion)
chain: PGWFLDSPDRPWNPPTFSPALLVVTEGDNATFTCSFSNTSESFVLNWYRMSPSNQTDKLAAFPEDRSQPGQDCRFRVTQLPNGRDFHMSVVRARRNDSGTYLCGAISLSTPVWIKESLRAELRVTERRAEVPTAH
notes: Signal peptide 1-20 left out; also called variant 1; Mut1/56#; not shown: rabbit IgG Fc (RFc) of vector pcDNA3.4-RFc
B4: Seq No. 3-RFc (PD-1 variant PD1_56#-2 fused to rabbit IgG Fc) (Fc fusion)
chain: B3 chain with E64F, D65L, R66F, S67N, Q68L
notes: Signal peptide 1-20 left out; several higher bands in non-reducing SDS-PAGE; also called variant 2; Mut2/56#-2; not shown: rabbit IgG Fc (RFc) of vector pcDNA3.4-RFc
B5: Seq No. 4-RFc (PD-1 variant PD1_56#-3 fused to rabbit IgG Fc) (Fc fusion)
chain: B3 chain with E64W, D65M, R66F, S67C, Q68F
notes: Signal peptide 1-20 left out; several higher bands in non-reducing SDS-PAGE; also called variant 3; Mut3/56#-3; not shown: rabbit IgG Fc (RFc) of vector pcDNA3.4-RFc
B6: Seq No. 5-RFc (PD-1 variant PD1_56#-15 fused to rabbit IgG Fc) (Fc fusion)
chain: B3 chain with R66F, S67R, Q68N, P69C, G70T
notes: Signal peptide 1-20 left out; also called variant 4; Mut4/56#-15; not shown: rabbit IgG Fc (RFc) of vector pcDNA3.4-RFc
B7: Seq No. 6-RFc (PD-1 variant PD1_56#-16 fused to rabbit IgG Fc) (Fc fusion)
chain: B3 chain with R66F, S67F, Q68T, P69V, G70S
notes: Signal peptide 1-20 left out; several higher bands in non-reducing SDS-PAGE; also called variant 5; PD1 variant 5 (56#-16); not shown: rabbit IgG Fc (RFc) of vector pcDNA3.4-RFc
B8: Seq No. 7-RFc (PD-1 variant PD1_56#-108 fused to rabbit IgG Fc) (Fc fusion)
chain: B3 chain with S67I, Q68N, P69R, G70S
notes: Signal peptide 1-20 left out; also called variant 6; not shown: rabbit IgG Fc (RFc) of vector pcDNA3.4-RFc
B9: Toripalimab (antibody, V domains shown)
VH: QGQLVQSGAEVKKPGASVKVSCKASGYTFTDYEMHWVRQAPIHGLEWIGVIESETGGTAYNQKFKGRVTITADKSTSTAYMELSSLRSEDTAVYYCAREGITTVATTYYWYFDVWGQGTTVTVSS
VL: DVVMTQSPLSLPVTLGQPASISCRSSQSIVHSNGNTYLEWYLQKPGQSPQLLIYKVSNRFSGVPDRFSGSGSGTDFTLKISRVEAEDVGVYYCFQGSHVPLTFGQGTKLEIKR

Tests used:
[1] = target: Seq No. 1-RFc (wild-type PD-1 fused to rabbit IgG Fc) (human; rabbit) (UniProt Q15116); test: SPR Biacore T200
[2] = target: Seq No. 2-RFc (PD-1 variant PD1_56# fused to rabbit IgG Fc) (human; rabbit) (UniProt Q15116); test: SPR Biacore T200
[3] = target: Seq No. 3-RFc (PD-1 variant PD1_56#-2 fused to rabbit IgG Fc) (human; rabbit) (UniProt Q15116); test: SPR Biacore T200
[4] = target: Seq No. 4-RFc (PD-1 variant PD1_56#-3 fused to rabbit IgG Fc) (human; rabbit) (UniProt Q15116); test: SPR Biacore T200
[5] = target: Seq No. 5-RFc (PD-1 variant PD1_56#-15 fused to rabbit IgG Fc) (human; rabbit) (UniProt Q15116); test: SPR Biacore T200
[6] = target: Seq No. 6-RFc (PD-1 variant PD1_56#-16 fused to rabbit IgG Fc) (human; rabbit) (UniProt Q15116); test: SPR Biacore T200
[7] = target: Seq No. 7-RFc (PD-1 variant PD1_56#-108 fused to rabbit IgG Fc) (human; rabbit) (UniProt Q15116); test: SPR Biacore T200
[8] = target: wild-type human PD-1 (hPD-1) on cells (human); test: cell-based or functional assay
[9] = target: Seq No. 1-RFc (wild-type PD-1 fused to rabbit IgG Fc) (human; rabbit) (UniProt Q15116); test: SPR Biacore T200; antibody stationary phase
[10] = target: Seq No. 2-RFc (PD-1 variant PD1_56# fused to rabbit IgG Fc) (human; rabbit) (UniProt Q15116); test: SPR Biacore T200; antibody stationary phase
[11] = target: Seq No. 3-RFc (PD-1 variant PD1_56#-2 fused to rabbit IgG Fc) (human; rabbit) (UniProt Q15116); test: SPR Biacore T200; antibody stationary phase
[12] = target: Seq No. 4-RFc (PD-1 variant PD1_56#-3 fused to rabbit IgG Fc) (human; rabbit) (UniProt Q15116); test: SPR Biacore T200; antibody stationary phase
[13] = target: Seq No. 5-RFc (PD-1 variant PD1_56#-15 fused to rabbit IgG Fc) (human; rabbit) (UniProt Q15116); test: SPR Biacore T200; antibody stationary phase
[14] = target: Seq No. 6-RFc (PD-1 variant PD1_56#-16 fused to rabbit IgG Fc) (human; rabbit) (UniProt Q15116); test: SPR Biacore T200; antibody stationary phase
[15] = target: Seq No. 7-RFc (PD-1 variant PD1_56#-108 fused to rabbit IgG Fc) (human; rabbit) (UniProt Q15116); test: SPR Biacore T200; antibody stationary phase
[16] = target: T2, PD-L1 fuse-expressed with an Fc derived from human IgG1 (human, UniProt Q9NZQ7 19-239); test: flow cytometry, human T cells
T2 construct: Bought reagent; also called PD-L1-Fc; hPD-L1-Fc; not shown: Fc of human IgG1
T2 sequence (Q9NZQ7 19-239 limits assumed): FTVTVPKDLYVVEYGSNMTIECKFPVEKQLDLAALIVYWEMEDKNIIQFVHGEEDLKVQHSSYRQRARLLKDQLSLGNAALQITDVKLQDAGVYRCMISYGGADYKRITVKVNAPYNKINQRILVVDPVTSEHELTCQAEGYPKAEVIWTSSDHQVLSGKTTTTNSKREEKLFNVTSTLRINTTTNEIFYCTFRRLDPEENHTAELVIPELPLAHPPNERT

[17] = target: T1, PD-L2 fuse-expressed with an Fc derived …; test: flow cytometry, human T cells
[18] = target: T2, PD-L1 fuse-expressed with an Fc derived …; test: SPR Biacore T200
[19] = target: T1, PD-L2 fuse-expressed with an Fc derived …; test: SPR Biacore T200
[20] = target: T2, PD-L1 fuse-expressed with an Fc derived …; test: SPR Biacore T200; PD1-RFc mobile phase
[21] = target: T1, PD-L2 fuse-expressed with an Fc derived …; test: SPR Biacore T200; PD1-RFc mobile phase
[22] = target: B3; test: SPR Biacore T200

Which Kd [1] does the source give for Tilelizumab (antibody) here?
Its Kd is 0.0135 nM.

What about the Kd [2] of the same molecule?
The Kd was 0.085 nM.

What about the Kd [3] of the same molecule?
Its Kd is 1.78 nM.

And the Kd [4]?
Its Kd is 2.94 nM.

What about the Kd [5] of the same molecule?
Its Kd is 0.567 nM.

And the Kd [6]?
Its Kd is 0.315 nM.

What about the Kd [7] of the same molecule?
Its Kd is 0.0492 nM.

And the IL-2 concentration (pg/ml) at 0.8 nM [8]?
Its IL-2 concentration (pg/ml) at 0.8 nM is 432 pg/mL.

And the IL-2 concentration (pg/ml) at 1.6 nM [8]?
The IL-2 concentration (pg/ml) at 1.6 nM was 440 pg/mL.

What about the IL-2 concentration (pg/ml) at 3.2 nM [8] of the same molecule?
Its IL-2 concentration (pg/ml) at 3.2 nM is 440 pg/mL.

And the IL-2 concentration (pg/ml) at 6.4 nM [8]?
The IL-2 concentration (pg/ml) at 6.4 nM was 56.1 pg/mL.

And the IL-2 concentration (pg/ml) at 12.8 nM [8]?
Its IL-2 concentration (pg/ml) at 12.8 nM is 36.9 pg/mL.

What about the IL-2 concentration (pg/ml) at 25.6 nM [8] of the same molecule?
The IL-2 concentration (pg/ml) at 25.6 nM was 47.7 pg/mL.

And the IL-2 concentration (pg/ml) at 51.2 nM [8]?
The IL-2 concentration (pg/ml) at 51.2 nM was 80.5 pg/mL.

What about the IL-2 concentration (pg/ml) at 102.4 nM [8] of the same molecule?
The IL-2 concentration (pg/ml) at 102.4 nM was 126 pg/mL.

What about the koff [9] of the same molecule?
The koff was 4.21e-05 s⁻¹.

What about the kon [9] of the same molecule?
Its kon is 3.12e+06 M⁻¹ s⁻¹.

What about the koff [10] of the same molecule?
Its koff is 0.000174 s⁻¹.

What about the kon [10] of the same molecule?
The kon was 2.05e+06 M⁻¹ s⁻¹.

And the koff [11]?
Its koff is 0.00105 s⁻¹.

What about the kon [11] of the same molecule?
Its kon is 588000 M⁻¹ s⁻¹.

What about the koff [12] of the same molecule?
The koff was 0.00203 s⁻¹.

What about the kon [12] of the same molecule?
The kon was 691000 M⁻¹ s⁻¹.

And the koff [13]?
Its koff is 0.0003 s⁻¹.

And the kon [13]?
The kon was 530000 M⁻¹ s⁻¹.

And the koff [14]?
Its koff is 0.000836 s⁻¹.

What about the kon [14] of the same molecule?
Its kon is 2.66e+06 M⁻¹ s⁻¹.

And the koff [15]?
Its koff is 0.000109 s⁻¹.

And the kon [15]?
Its kon is 2.21e+06 M⁻¹ s⁻¹.

Which results are given for B1?
binding result [16]: binds; binding result [17]: binds

What does the source list for B2?
binding result [16]: binds; binding result [17]: binds

B3 was tested. Which Kd [18] did it give?
Its Kd is 0.457 nM.

What about the Kd [19] of the same molecule?
The Kd was 1.17 nM.

And the koff [20]?
Its koff is 0.00129 s⁻¹.

And the kon [20]?
Its kon is 2.82e+06 M⁻¹ s⁻¹.

And the koff [21]?
The koff was 0.00657 s⁻¹.

And the kon [21]?
Its kon is 5.6e+06 M⁻¹ s⁻¹.

What does the source list for B4?
Kd [18]: 4.12 nM; Kd [19]: 0.00296 nM; koff [21]: 1.25e-05 s⁻¹; kon [21]: 4.22e+06 M⁻¹ s⁻¹

What does the source list for B5?
Kd [18]: 39.6 nM; Kd [19]: 296 nM; koff [20]: 0.00266 s⁻¹; kon [20]: 67400 M⁻¹ s⁻¹; koff [21]: 0.0019 s⁻¹; kon [21]: 6420 M⁻¹ s⁻¹

For B6, which Kd [18] is on record?
The Kd was 2.25 nM.

And the Kd [19]?
Its Kd is 4.53 nM.

What about the koff [20] of the same molecule?
The koff was 0.00343 s⁻¹.

And the kon [20]?
The kon was 1.52e+06 M⁻¹ s⁻¹.

And the koff [21]?
The koff was 0.0096 s⁻¹.

And the kon [21]?
The kon was 2.12e+06 M⁻¹ s⁻¹.

Which results are given for B7?
Kd [18]: 0.657 nM; Kd [19]: 0.798 nM; koff [20]: 0.00153 s⁻¹; kon [20]: 2.32e+06 M⁻¹ s⁻¹; koff [21]: 0.00483 s⁻¹; kon [21]: 6.05e+06 M⁻¹ s⁻¹

Which Kd [18] does the source give for B8 here?
Its Kd is 0.384 nM.

What about the Kd [19] of the same molecule?
The Kd was 0.336 nM.

What about the koff [20] of the same molecule?
The koff was 0.000771 s⁻¹.

What about the kon [20] of the same molecule?
The kon was 2.01e+06 M⁻¹ s⁻¹.

And the koff [21]?
The koff was 0.00356 s⁻¹.

And the kon [21]?
Its kon is 1.06e+07 M⁻¹ s⁻¹.

B9 was tested. Which Kd [22] did it give?
Its Kd is 0.395 nM.
